Test results published in the supplement of paper PMC11908140.

B1: library; numbered along this chain (parent)
chain: MRKPRAAVGSGHRKQAASQEGRQKHAKNNSQAKPSACDGLARQPEEVVLQASVSSYHLFRDVAEVTAFRGSLLSWYDQEKRDLPWRRRAEDEMDLDRRAYAVWVSEVMLQQTQVATVINYYTGWMQKWPTLQDLASASLEEVNQLWAGLGYYSRGRRLQEGARKVVEELGGHMPRTAETLQQLLPGVGRYTAGAIASIAFGQATGVVDGNVARVLCRVRAIGADPSSTLVSQQLWGLAQQLVDPARPGDFNQAAMELGATVCTPQRPLCSQCPVESLCRARQRVEQEQLLASGSLSGSPDVEECAPNTGQCHLCLPPSEPWDQTLGVVNFPRKASRKPPREESSATCVLEQPGALGAQILLVQRPNSGLLAGLWEFPSVTWEPSEQLQRKALLQELQRWAGPLPATHLRHLGEVVHTFSHIKLTYQVYGLALEGQTPVTTVPPGARWLTQEEFHTAAVSTAMKKVFRVYQGQQPGTCMGSKRSQVSSPCSRKKPRMGQQVLDNFFRSHISTDAHSLNSAAQ

Variants of: B1
Experiment: 8OG:A repair function score (normalized; synonymous = 0, nonsense = -1) (normalized log-likelihood score); higher = more repair activity (WT-like)
Conditions: with 8OG:A DNA repair reporter (GFP) in HEK-293 MUTYH KO cells
Summary of the method: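 Lentiviral MUTYH cDNA NNN codon-scan libraries were expressed in MUTYH knockout HEK-293 cells with 10 pg/ml doxycycline, and the cells received an 8OG:A GFP repair reporter together with mCherry. At 72 h, viable mCherry+ cells went into GFP+ (repair) or GFP− bins, three replicates per tile, before tile amplicons were sequenced. A repair function score was then built from per-tile Rosace fitness scores, anchored on the synonymous and nonsense distributions. Synonymous medians sat at 0 and nonsense at -1, and variants under 300 counts per million at the start were left out.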
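Note: cells sorted at 72 h after reporter transfection.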

8OG:A repair function score of substitutions, site by site:
G222: R -0.436 | L -0.623 | H -0.56 | F -0.564 | N -0.593 | P -0.731 | Q -0.443 | A -0.213 | C -0.509 | S -0.439 | V -0.622 | K -0.495 | M -0.381 | D -0.733 | I -0.608 | E -0.565 | Y -0.461 | T -0.547 | W -0.349
S226: M -0.173 | W -0.231 | T -0.0677 | K 0.026 | P -0.642 | F -0.371 | R 0.00193 | C -0.132 | G -0.00798 | Q 0.176 | I -0.309 | L -0.314 | V -0.247 | A 0.0017 | N 0.261 | H 0.0371 | E 0.00732 | D -0.146 | Y -0.198
V214: A -0.504 | S -0.707 | H -0.795 | D -1.02 | E -0.927 | N -0.833 | F -0.287 | Y -0.782 | Q -0.911 | I -0.231 | P -1.01 | W -0.258 | M -0.207 | K -0.957 | C -0.56 | G -0.9 | L -0.0688 | T -0.495 | R -1.01
R219: G -0.758 | Q -0.682 | M -0.571 | C -0.563 | D -0.946 | E -0.837 | I -0.887 | H -0.593 | Y -0.556 | L -0.542 | S -0.772 | V -0.809 | N -0.877 | A -0.563 | P -1.02 | W -0.783 | T -0.638 | F -0.485 | K -0.381
L215: C -0.768 | K -1.02 | V -0.573 | P -1.03 | R -1.02 | I -0.331 | E -0.98 | Y -0.0538 | W -0.704 | Q -0.871 | D -0.968 | G -0.867 | N -0.967 | F -0.325 | H -0.901 | M -0.129 | S -0.957 | A -0.788 | T -0.86
L229: R 0.134 | G -0.0206 | F -0.0261 | S 0.0557 | D -0.158 | N -0.25 | H 0.287 | P -0.112 | T -0.124 | V 0.0526 | W -0.0377 | Y 0.0445 | I -0.0293 | K 0.076 | E -0.064 | C -0.201 | A 0.087 | Q -0.161 | M -0.0886
V230: I -0.264 | C -0.229 | D -0.915 | T -0.281 | G -0.152 | Q -0.787 | F -0.517 | W -0.571 | S -0.422 | H -0.63 | L -0.499 | K -0.826 | P -0.409 | R -0.524 | E -0.881 | M -0.387 | A -0.0122 | Y -0.311 | N -0.687
C216: N -0.84 | D -0.949 | P -0.98 | S -0.137 | Y -0.886 | R -0.931 | L -0.469 | T -0.335 | M -0.646 | W -1 | V -0.649 | A -0.252 | G -0.663 | K -0.969 | I -0.57 | Q -0.579 | H -0.687 | E -0.808 | F -0.905
R217: H -0.835 | K -1.03 | L -1.01 | V -1.01 | M -0.936 | D -1.02 | W -0.993 | Y -1.01 | Q -1.03 | A -1.02 | E -1.03 | I -1.03 | F -1.04 | S -1.03 | G -1.01 | C -1.03 | N -1.04 | T -1.02 | P -1.04
V218: N -0.444 | W -0.74 | E -0.985 | M 0.0454 | F -0.436 | K -1 | I -0.196 | Y -0.62 | Q -0.472 | C -0.211 | S -0.374 | G -0.74 | P -1.04 | A -0.268 | R -1.03 | L -0.178 | D -0.983 | T -0.283 | H -0.41
P225: H -0.374 | V -0.0099 | Q -0.132 | W -0.322 | S -0.0602 | L 0.119 | E -0.604 | I 0.0375 | Y 0.0138 | A -0.238 | F -0.222 | D -0.53 | C -0.182 | T -0.0501 | R -0.147 | G -0.342 | N -0.234 | K -0.284 | M -0.186
S227: E -0.452 | Y -0.307 | Q -0.0353 | K 0.0372 | A -0.0215 | P -0.658 | L -0.119 | D 0.49 | G -0.0911 | T 0.0756 | F -0.188 | I -0.232 | C -0.0498 | V -0.241 | N 0.126 | H -0.197 | R -0.103 | W -0.244
A220: N -0.671 | R -0.747 | P -0.978 | M -0.551 | T -0.62 | S -0.411 | V -0.57 | W -0.836 | F -0.676 | E -0.465 | Y -0.75 | H -0.555 | C -0.411 | D -0.821 | I -0.848 | G -0.13 | K -0.891 | L -0.81 | Q -0.691
I221: P -1.01 | T -0.889 | Y -0.63 | C -0.728 | H -0.866 | D -1.02 | F -0.597 | E -0.989 | M -0.523 | R -0.972 | N -0.933 | Q -1.03 | L -0.449 | W -0.622 | K -0.986 | S -0.991 | V -0.347 | G -0.993 | A -0.993
S231: C -0.12 | A -0.0555
T228: M 0.0193 | E 0.0521 | Q -0.217 | A 0.0743 | N -0.0359 | W -0.106 | D -0.245 | F -0.051 | R 0.329 | P 0.212 | I -0.152 | C -0.0551 | V 0.153 | S 0.124 | H 0.457 | K 0.0779 | Y -0.0271 | G 0.0678 | L 0.00837
D224: T -0.955 | Q -0.87 | W -0.942 | C -0.955 | R -0.978 | F -0.955 | H -0.924 | S -0.964 | Y -0.939 | L -0.947 | N -0.918 | P -0.861 | V -0.988 | E -0.936 | G -0.936 | I -0.934 | A -0.954 | K -0.928 | M -0.995
R213: W -1 | V -1.01 | P -1.03 | S -1.01 | L -1.01 | M -1.04 | Q -1.02 | N -0.963 | T -1.01 | Y -0.997
A223: C -0.145 | R 0.032 | P -0.418 | L -0.498 | E -0.219 | W -0.73 | D -0.631 | M -0.321 | Q -0.0573 | T -0.118 | S -0.27 | N -0.465 | I -0.454 | Y -0.608 | G -0.111 | F -0.516 | H -0.196 | K -0.118 | V -0.38
